Source: patent publication EP2762886A1

Target: 4E wild type (overexpressed in stably transfected NIH3T3 cells)
Experiment: cell-based or functional assay

In the case of “human promyelocytic leukemia protein PML (overexpressed from pLINKSV40-PML) (from UniProt P29590 1-882)”, the viability of serum deprived cells (annexin V / propidium iodide flow cytometry) (% viable cells) is reported as 40.
